Source: PMC6522533 (2019)

Tests used:
Test in all cases: GST pull-down, anti-Smad7 immunoblot
GST-β-catenin aa1–106 = biological target: T1, GST-β-catenin aa1–106 (Mus musculus (Mouse), UniProt Q02248)
T1 chain: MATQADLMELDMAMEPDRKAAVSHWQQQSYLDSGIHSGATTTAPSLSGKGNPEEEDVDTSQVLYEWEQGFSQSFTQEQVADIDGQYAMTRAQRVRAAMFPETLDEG

GST-β-catenin aa422–683 = biological target: T2, GST-β-catenin aa422–683 (Mus musculus (Mouse), UniProt Q02248)
T2 chain: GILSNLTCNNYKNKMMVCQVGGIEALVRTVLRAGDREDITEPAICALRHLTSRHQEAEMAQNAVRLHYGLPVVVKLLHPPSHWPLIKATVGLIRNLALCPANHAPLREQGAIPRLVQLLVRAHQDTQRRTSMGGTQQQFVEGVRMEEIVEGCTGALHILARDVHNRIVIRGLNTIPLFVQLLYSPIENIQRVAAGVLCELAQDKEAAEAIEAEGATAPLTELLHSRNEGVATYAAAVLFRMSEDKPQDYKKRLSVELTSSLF

GST-β-catenin aa1–574 = biological target: T3, GST-β-catenin aa1–574 (Mus musculus (Mouse), UniProt Q02248)
T3 chain: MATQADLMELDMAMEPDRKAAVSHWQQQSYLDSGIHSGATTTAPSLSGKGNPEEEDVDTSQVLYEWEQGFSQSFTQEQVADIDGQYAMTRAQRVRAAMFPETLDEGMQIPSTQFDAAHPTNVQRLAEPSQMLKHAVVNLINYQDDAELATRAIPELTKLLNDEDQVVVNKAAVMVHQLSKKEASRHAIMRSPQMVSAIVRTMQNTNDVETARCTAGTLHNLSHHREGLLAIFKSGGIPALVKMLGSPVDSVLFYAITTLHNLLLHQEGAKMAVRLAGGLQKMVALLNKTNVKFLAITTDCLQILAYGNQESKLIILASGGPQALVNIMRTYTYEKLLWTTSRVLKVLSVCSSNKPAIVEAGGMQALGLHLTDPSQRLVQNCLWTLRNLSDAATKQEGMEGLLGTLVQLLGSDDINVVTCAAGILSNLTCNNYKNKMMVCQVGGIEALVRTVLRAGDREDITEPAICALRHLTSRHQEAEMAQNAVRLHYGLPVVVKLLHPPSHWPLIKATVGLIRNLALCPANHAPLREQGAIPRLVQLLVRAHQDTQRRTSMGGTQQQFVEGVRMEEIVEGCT

GST-β-catenin aa120–683 = biological target: T4, GST-β-catenin aa120–683 (Mus musculus (Mouse), UniProt Q02248)
T4 chain: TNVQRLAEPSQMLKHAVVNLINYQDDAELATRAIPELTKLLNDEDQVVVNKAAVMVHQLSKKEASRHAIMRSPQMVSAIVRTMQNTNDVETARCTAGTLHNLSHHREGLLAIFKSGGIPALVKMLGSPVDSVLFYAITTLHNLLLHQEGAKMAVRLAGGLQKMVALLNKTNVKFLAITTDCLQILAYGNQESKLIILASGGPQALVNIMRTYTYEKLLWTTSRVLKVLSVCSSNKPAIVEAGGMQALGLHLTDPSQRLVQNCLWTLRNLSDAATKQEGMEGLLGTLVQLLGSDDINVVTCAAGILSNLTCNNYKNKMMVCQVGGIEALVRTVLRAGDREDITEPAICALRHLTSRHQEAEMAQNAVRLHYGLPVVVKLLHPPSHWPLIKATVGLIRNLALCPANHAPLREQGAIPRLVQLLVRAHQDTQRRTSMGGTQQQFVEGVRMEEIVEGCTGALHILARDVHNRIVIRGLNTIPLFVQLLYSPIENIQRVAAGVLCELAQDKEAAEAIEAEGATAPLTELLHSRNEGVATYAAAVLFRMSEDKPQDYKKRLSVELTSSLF

GST-β-catenin aa575–696 = biological target: T5, GST-β-catenin aa575–696 (Mus musculus (Mouse), UniProt Q02248)
T5 chain: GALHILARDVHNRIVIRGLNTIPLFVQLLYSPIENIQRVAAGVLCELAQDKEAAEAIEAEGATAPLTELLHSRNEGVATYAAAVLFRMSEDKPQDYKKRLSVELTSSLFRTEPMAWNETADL

GST-β-catenin aa575–683 = biological target: T6, GST-β-catenin aa575–683 (Mus musculus (Mouse), UniProt Q02248)
T6 chain: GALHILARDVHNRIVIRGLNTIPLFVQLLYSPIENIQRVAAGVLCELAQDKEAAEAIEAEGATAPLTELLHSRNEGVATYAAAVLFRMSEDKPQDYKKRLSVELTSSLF

Measured: binding result

B1: Smad7 (GST tag removed by thrombin) (protein)
chain: MFRTKRSALVRRLWRSRAPGGEDEEEGVGGGGGGGELRGEGATDGRAYGAGGGGAGRAGCCLGKAVRGAKGHHHPHPPTSGAGAAGGAEADLKALTHSVLKKLKERQLELLLQAVESRGGTRTACLLLPGRLDCRLGPGAPASAQPAQPPSSYSLPLLLCKVFRWPDLRHSSEVKRLCCCESYGKINPELVCCNPHHLSRLCELESPPPPYSRYPMDFLKPTAGCPDAVPSSAETGGTNYLAPGGLSDSQLLLEPGDRSHWCVVAYWEEKTRVGRLYCVQEPSLDIFYDLPQGNGFCLGQLNSDNKSQLVQKVRSKIGCGIQLTREVDGVWVYNRSSYPIFIKSATLDNPDSRTLLVHKVFPGFSIKAFDYEKAYSLQRPNDHEFMQQPWTGFTVQISFVKGWGQCYTRQFISSCPCWLEVIFNSR
binds: GST-β-catenin aa422–683 | GST-β-catenin aa120–683 | GST-β-catenin aa575–696 | GST-β-catenin aa575–683
no binding: GST-β-catenin aa1–106 | GST-β-catenin aa1–574
